The target of assay [1] is T1, OspA ST1 (B. burgdorferi B31 allele) on the B. burgdorferi HB19-R1 reporter strain (Borrelia burgdorferi B31 (OspA ST1), UniProt P0CL66).
T1 construct: OspA of B. burgdorferi B31 (ST1), lipoprotein on the cell surface; a second wild type ST1 plasmid with silent mutations was used beside the residue 107 mutants; same protein; also called HB19-R1 OspAST1 reporter; source: B. burgdorferi HB19-R1 (lacks ospA), reporter plasmid pGW217, native ospAB promoter, on live cells
The assay is described as follows: flow cytometry on cells; live B. burgdorferi HB19-R1 reporter strains expressing OspA ST1-7, 10 µg/ml mAb, Alexa 647-labeled goat anti-human IgG. To be noted: one partner purified. In general terms: In flow cytometry, cells or beads pass a laser one at a time.

Assay [2] addresses T2, OspA ST2 (B. afzelii PKo allele) on the B. burgdorferi HB19-R1 reporter strain (Borrelia afzelii PKo (OspA ST2), UniProt P0A3N7).
T2 construct: OspA of B. afzelii PKo (ST2); source: B. burgdorferi HB19-R1 (lacks ospA), reporter plasmid, native ospAB promoter of B31, on live cells
The assay is described as above. To be noted: one partner purified.

The target in assay [3] is OspA ST3 (B. garinii PBr allele) on the B. burgdorferi HB19-R1 reporter strain (Borrelia garinii PBr (OspA ST3), UniProt B8F1J0, strain). The description is as above. To be noted: one partner purified.
Assay [4] deals with T3, OspA ST4 (B. bavariensis PBi allele) on the B. burgdorferi HB19-R1 reporter strain (Borrelia bavariensis PBi (OspA ST4), UniProt Q6LBF1, strain).
T3 construct: OspA of B. bavariensis PBi (ST4); source: B. burgdorferi HB19-R1 (lacks ospA), reporter plasmid, native ospAB promoter of B31, on live cells
The description is as above. The following applies: one partner purified.

Assay [5] has as its target T4, Recombinant OspAST1 (residues 18–273) from B. burgdorferi B31 (Borrelia burgdorferi B31 (OspA ST1), UniProt P0CL66).
T4 construct: source: tags removed with TEV protease; not shown: deca-histidine, N-terminal, cleaved; SUMO, N-terminal, cleaved
The assay can be described thus: BLI; Octet RED96e; mAb captured on AHC sensors (0.4 µg/mL, 5 min), dipped into non-lipidated OspA 21.58 nM to 0.089 nM (10 min), dissociation 30 min; 0.1% BSA in PBS, 0.01% Tween20; global 1:1 model. The following applies: both partners purified. On the technique in general: Biolayer interferometry detects binding as a change in optical thickness at a sensor tip.

For assay [6], the target named is T5, Native OspA ST2 on B. afzelii Pko (Borrelia afzelii PKo (OspA ST2), UniProt P0A3N7).
T5 construct: native OspA (ST2) on the bacterial surface of the primary isolate; also called ST 2- B. afzelii Pko; source: endogenous, on live B. afzelii Pko
The assay can be described thus: flow cytometry on cells; live Borrelia primary isolates with native OspA ST1-7, 10 µg/ml mAb, Alexa 647-labeled goat anti-human IgG. The following applies: one partner purified.

In assay [7] the target is T6, Native OspA ST3 on B. garinii PBr (Borrelia garinii PBr (OspA ST3), UniProt B8F1J0, strain).
T6 construct: native OspA (ST3) on the bacterial surface of the primary isolate; also called ST 3- B. garinii PBr; source: endogenous, on live B. garinii PBr
The description is as above. The following applies: one partner purified.

The target in assay [8] is T7, Native OspA ST4 on B. bavariensis PBi (Borrelia bavariensis PBi (OspA ST4), UniProt Q6LBF1, strain).
T7 construct: native OspA (ST4) on the bacterial surface of the primary isolate; also called ST 4- B. bavariensis PBi; source: endogenous, on live B. bavariensis PBi
The assay is described as above. To be noted: one partner purified.

For assay [9], the target named is T8, Recombinant non-lipidated OspA serotype 2 (Borrelia afzelii (OspA ST2; strain not …, UniProt P0A3N7).
T8 construct: OspA serotype 2, non-lipidated; also called recombinant OspA ST2; ST 2; source: E. coli, purified; provided by Dr. Meredith Finn (Moderna)
The assay is described as follows: microsphere immunoassay (MIA); recombinant non-lipidated OspA ST 1-7 coupled to Magplex-C microspheres, serial dilutions of mAb, 1 x PBS, 2% BSA, pH 7.4, room temperature 1 hr, PE anti-human IgG Fc. The following applies: both partners purified.

The target in assay [10] is T9, Recombinant non-lipidated OspA serotype 4 (Borrelia bavariensis (OspA ST4; strain …, UniProt Q6LBF1, strain).
T9 construct: OspA serotype 4, non-lipidated; also called recombinant OspA ST4; ST 4; source: E. coli, purified; provided by Dr. Meredith Finn (Moderna)
The assay is described as above. To be noted: both partners purified.

T8 sequence (P0A3N7 17-273): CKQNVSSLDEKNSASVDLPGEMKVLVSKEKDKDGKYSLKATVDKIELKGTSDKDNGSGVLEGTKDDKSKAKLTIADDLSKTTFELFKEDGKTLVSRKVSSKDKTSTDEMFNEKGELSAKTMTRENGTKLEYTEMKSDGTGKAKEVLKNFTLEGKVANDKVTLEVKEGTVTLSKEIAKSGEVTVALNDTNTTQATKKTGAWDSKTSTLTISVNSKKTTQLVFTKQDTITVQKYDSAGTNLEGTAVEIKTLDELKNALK
T2 sequence (P0A3N7 17-273): as above
T1 sequence (P0CL66 17-273): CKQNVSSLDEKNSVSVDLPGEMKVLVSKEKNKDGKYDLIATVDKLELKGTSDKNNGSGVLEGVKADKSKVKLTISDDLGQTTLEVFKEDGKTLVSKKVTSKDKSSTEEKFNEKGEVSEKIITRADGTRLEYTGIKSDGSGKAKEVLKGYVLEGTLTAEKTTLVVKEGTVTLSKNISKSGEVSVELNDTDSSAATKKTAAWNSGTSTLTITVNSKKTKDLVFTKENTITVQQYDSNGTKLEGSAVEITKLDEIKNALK
T4 sequence (P0CL66 18-273): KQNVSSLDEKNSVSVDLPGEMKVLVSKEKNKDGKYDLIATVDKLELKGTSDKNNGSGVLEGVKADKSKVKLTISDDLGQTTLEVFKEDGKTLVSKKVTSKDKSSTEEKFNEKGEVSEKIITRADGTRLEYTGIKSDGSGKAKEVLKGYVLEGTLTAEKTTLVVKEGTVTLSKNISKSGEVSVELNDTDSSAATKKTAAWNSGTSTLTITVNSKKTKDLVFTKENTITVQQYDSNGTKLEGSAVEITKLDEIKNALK
T5 sequence (P0A3N7 17-273): as the sequence (P0A3N7 17-273) above

B1: 857-2, recombinant human monoclonal IgG1 (antibody, V domains shown)
VH: EVQLVQSGEEVKKPGESLKISCKGSGYKFSSYWIGWVRQMPGKGLEWMGIIFPGDSDKRYSPSFQGQVTISADKSISTVYLQWSSLKASDTAMYYCARHITTHTYRGFFDFWGQGTLVTVSS
VL: AIQLTQSPSSLSASVGDRVTITCRASQDISSALAWYQQKPGKAPKLLIYDVSSLESGVPSRFSGSGSGTDFTLTISSLQPEDFATYYCQQFNGYPHRLTFGGGTKVEIK
notes: source: Expi293 cells, transiently transfected with VH and VL plasmids, purified (Protein A)
For B1, the MFI in [1], in [2], in assay [3] and in [4] was greater than 4000 each time. In assay [5], the Kd (in general, the free concentration of one partner at which half of the binding sites on the other are occupied at equilibrium, for simple one-to-one binding) stood at 0.3 nM.

B2: LA-2 IgG (antibody, V domains shown)
VH: QIQLVQSGPELKKPGETVKISCKASGYTFTDYSMYWVKQAPGKGLKRMGWINTETGEPTYADDFKGRFALSLDTSASTAYLHISNLKNEDTATYFCARGLDSWGQGTSVTVSS
VL: DIQMTQSPSSLSATLGGKVTITCKASQDINKYIAWYQHKPGKGPRLLIHYTSTLQPGNPSRFSGSGSGRDYSFSISNLEAEDIAIYYCLQYDNLQRTFGGGTKVEIK
notes: also called OspA ST 1-specific IgG mAb LA-2
For the molecule B2, the binding result in assay [6], in assay [7], in assay [8], in [2], in assay [3] and in assay [4] was “no binding (tested: 10 µg/ml)” each time. In addition, the MFI in assay [1] is greater than 7000. The Kd in assay [5] worked out at 64 nM.

B3: 227-1, recombinant human monoclonal IgG1 (antibody, V domains shown)
VH: EVQLVQSGAEVKMPGESLKISCEVSGYSFTSYWIGWVRQMPGKGLEWMGIIYPGDSDTRYSPSFQGQVTISADKSISTAYLQWSSLKASDTAMYYCTRSISRSGPGFSLSWFFDYWGQGTLVTVSS
VL: AIQLTQSPSSLSASVGDRVTITCRASQGISNALAWYQQKPGKAPKLLIYDASSLERGVPSRFSGSGFGTDFTLTISSLQPEDFAIYYCQQFNGFPNTFGQGTRVEIK
notes: as for B1
As to B3, the binding result is reported as “binds” in assay [2]; “no binding” in assay [3]; “binds” in assay [4]; “binds” in [9]; “binds” in assay [10]. Moreover, in assay [5], the Kd was found to be 1.7 nM.

B4: 227-2, recombinant human monoclonal IgG1 (antibody, V domains shown)
VH: EVQVVQSGAEVKKPGESLKISCKGSGYSFTSYWIGWVRQMPGKGLEWMGIIYPGDSDTRYSPSFQGQVTISADKSISTAYLQWSSLKASDTAMYYCVRSISRSGPGYILSWFFDYWGQGSLVTVSS
VL: AIQLTQSPSSLSASVGDRVTITCRASQGISNALAWYQQKPGKAPKLLIYDASSLERGVPSRFSGSGFGTDFTLTISSLQPEDFAIYYCQQFNGFPNTFGQGTRVEIK
notes: as for B1
For B4, the binding result in assay [2], in assay [4], in [9] and in assay [10] was “binds” throughout. Further, in assay [5], the Kd was 0.48 nM.

B5: 221-5, recombinant human monoclonal IgG1 (antibody, V domains shown)
VH: EVQLVQSGAEVKKPGESLKISCKGSGYSFTSYWIGWVRQMPGKGLEWMGIIYPGDSDTRYSPSFQGQVTISADKSISTAYLQWSSLKASDTAMYYCARHLGIDYFFGMDVWGQGTTVTVSS
VL: EIVLTQSPATLSLSPGERATLSCRASQSVSSYLAWYQQKPGQAPRLLIYDASTRDTGIPARFSGSGSGTDFTLTISSLEPEDFAVYYCQHHSNWYTFGQGTKLEIK
notes: as for B1
Consider B5, for which the MFI in assay [1], in assay [2], in assay [3] and in assay [4] was greater than 4000 throughout. Also, the Kd in assay [5] is 0.52 nM.

B6: 221-20, recombinant human monoclonal IgG1 (antibody, V domains shown)
VH: EIQLVQSGTEVKKPGESLRISCRVSGYSFTNYWVAWVRQMPGKGLEWMGIIWPGDSDTRYSPSFQGQVTISADKSINTAYLQWSSLKASDTAVYYCARHLGIDYFFGLDVWGQGTTVTVSS
VL: EIVLTQSPATLSLSPGERATLSCRASQSVSSYLAWYQQKPGQAPRLLIYDASSRATGIPARFSGSGSGTDFTLTISSLEPEDFAVYYCQHLSNWYTFGQGTNLEIK
notes: as for B1
For B6, the MFI in assay [1], in assay [2], in assay [3] and in assay [4] was greater than 4000 throughout. Also, the Kd in assay [5] was determined as 0.37 nM.

B7: 221-7, recombinant human monoclonal IgG1 (antibody, V domains shown)
VH: EVQLVQSGSEVKKPGESLKISCQVSGYSFTSYWIGWVRQMPGKGLERVGFIYPGDSDTRYSPSFQGQVTISADKSISTAYLQWSSLKASDTAMYYCARGILRYFDWFLDYWGQGTLVTVSS
VL: AIQLTQSPSSLSASVGDRVTITCRASQGISSGSAWYQQKPGKAPKLLIYDVSSLESGVPSRFSGSGSGTEFTLTISSLQPEDFATYYCQQFNSYLLTFGGGTKVEIK
notes: as for B1
For the molecule B7, the Kd in assay [5] is 0.66 nM.

B8: 223-5, recombinant human monoclonal IgG1 (antibody, V domains shown)
VH: EVQLVQSGAEVKKPGESLKISCKGSGYSLTSYWIGWVRQMPGKGLEWMGIIWPGDSDTRYSPSFQGQVTISADKSISTAYLQWSSLKASDTAMYYCARYVTVGAFDFWGQGTMVTVSS
VL: AIQLTQSPSSLSASVGDRVTITCRASQGISSALAWYQQKPGKTPKLLIYDVSSLESGVPSRFSGSGCGTDFTLTISSVQPEDFATYYCQQFNSYLWTFGQGTKVEIK
notes: as for B1
Consider B8, for which, in [5], the Kd turned out to be 0.17 nM.

B9: 221-11, recombinant human monoclonal IgG1 (antibody, V domains shown)
VH: EVQLVQSGAEVKKPGESLKISCQSSGYRFTIYWIGWVRQMPGKGLEWMGIIWPGDSDTRYSPSFQGQVTISADKSISTAYLQWSSLKASDTAMYYCVRGIGRYSNWFLDYWGQGTLVTVSS
VL: AIQLTQSPSSLSASVGDRVTITCRASQGFSSALAWYQQKPGKAPKLLIYDASSLESGVPSRFSGSGSGTDFTLTISSLQPEDFATYYCQQFNSYPLTFGGGTKVEIK
notes: as for B1
With B9, the binding result in assay [2], in assay [4], in assay [9] and in [10] was “binds” each time. Besides, the Kd in assay [5] was found to be 0.35 nM.

The values are drawn from article PMC13138739, “Broadly conserved protective epitopes on the lyme disease vaccine antigen, OspA” (PLOS Pathogens, 2026).
